Experimental data taken from doi:10.1101/2023.03.05.531154.
pKd: −log10 of the molar value.

Molecular target: Man5GlcNAc2-enriched CH505.M5.G458Y chimeric SOSIP gp140 Env trimer (HIV-1 (CH505 transmitted/founder virus) | HIV-1)
Assay: BLI

| Substance | pKd |
| --- | --- |
| CH235.12 Fab | 9.70 |
| CH235 UCA IgG (antibody) | 8.35 |
